Assay results from patent publication US20140242069.

Target: GST-KRT19 fusion protein (UniProt P08727)
UniProt P08727, sequence (P08727 whole entry, the tested form may be a part): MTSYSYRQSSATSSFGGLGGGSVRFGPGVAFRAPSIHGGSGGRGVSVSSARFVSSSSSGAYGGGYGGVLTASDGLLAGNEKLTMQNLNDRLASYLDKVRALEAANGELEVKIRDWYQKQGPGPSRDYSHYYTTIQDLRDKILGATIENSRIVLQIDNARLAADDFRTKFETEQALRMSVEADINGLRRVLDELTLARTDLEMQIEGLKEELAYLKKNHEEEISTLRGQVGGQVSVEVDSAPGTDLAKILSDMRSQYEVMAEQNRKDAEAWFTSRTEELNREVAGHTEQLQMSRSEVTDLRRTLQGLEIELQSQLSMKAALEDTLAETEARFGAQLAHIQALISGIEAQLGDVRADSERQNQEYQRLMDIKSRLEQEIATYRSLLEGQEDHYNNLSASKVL

For HA-Akt protein, the “in vitro kinase assay ([gamma-32P]ATP, SDS-PAGE, autoradiography)” value was “Akt mediated Ser35 phosphorylation of KRT”.
